Source: patent publication US20230357348A1 (AstraZeneca / MedImmune, published 2023)
Starred links: 1 amine or outer side, 2 acyl side, 3 side chain; linkers in the order of their positions; H or OH if unused. Non-standard residues stand in square brackets, D forms with d. Groups on a side chain read outwards from the residue. No end group written: not given here. *: point of attachment. C20 diacid = O=C(O)CCCCCCCCCCCCCCCCCCC(=O)*; C18 diacid = O=C(O)CCCCCCCCCCCCCCCCC(=O)*; γGlu = O=C(O)[C@H](CCC(=O)[*:2])N[*:1]; αMeF = C[C@](N)(Cc1ccccc1)C(=O)O; AEEA = NCCOCCOCC(=O)O; Aib = CC(C)(N)C(=O)O

Key:
[1] = target: human GLP-1 receptor (hGLP-1R) (human, UniProt P43220 24-463); experiment: cell-based or functional assay
[2] = target: human glucagon receptor (hGCGR) (human, UniProt P47871 26-477); experiment: cell-based or functional assay
human glucagon receptor (hGCGR), sequence (P47871 26-477): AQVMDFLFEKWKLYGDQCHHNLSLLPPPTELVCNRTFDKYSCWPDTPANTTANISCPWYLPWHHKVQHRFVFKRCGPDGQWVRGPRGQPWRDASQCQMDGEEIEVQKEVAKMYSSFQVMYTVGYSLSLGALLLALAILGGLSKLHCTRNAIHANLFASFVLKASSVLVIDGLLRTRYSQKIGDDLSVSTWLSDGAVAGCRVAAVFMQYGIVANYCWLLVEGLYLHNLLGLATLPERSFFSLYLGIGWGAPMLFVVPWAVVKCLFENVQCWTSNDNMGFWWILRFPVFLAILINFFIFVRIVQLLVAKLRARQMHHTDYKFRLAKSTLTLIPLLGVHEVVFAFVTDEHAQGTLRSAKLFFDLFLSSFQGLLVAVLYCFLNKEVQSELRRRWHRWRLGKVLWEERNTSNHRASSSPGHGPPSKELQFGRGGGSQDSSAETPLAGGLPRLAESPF

Binder	hGLP-1R EC50 (pM) [1] [pM]	hGluc-R EC50 (pM) [2] [pM]
H[Aib]QGTFTSDVSK[αMeF]LDTK([AEEA-AEEA-γGlu-C18 diacid])AARDFVQWLLE[Aib]G-NH2 (N-terminus assumed; SMILES CC(C)C[C@H](NC(=O)[C@H](Cc1c[nH]c2ccccc12)NC(=O)[C@H](CCC(N)=O)NC(=O)[C@@H](NC(=O)[C@H](Cc1ccccc1)NC(=O)[C@H](CC(=O)O)NC(=O)[C@H](CCCNC(=N)N)NC(=O)[C@H](C)NC(=O)[C@H](C)NC(=O)[C@H](CCCCNC(=O)COCCOCCNC(=O)COCCOCCNC(=O)CC[C@H](NC(=O)CCCCCCCCCCCCCCCCC(=O)O)C(=O)O)NC(=O)[C@@H](NC(=O)[C@H](CC(=O)O)NC(=O)[C@H](CC(C)C)NC(=O)[C@](C)(Cc1ccccc1)NC(=O)[C@H](CCCCN)NC(=O)[C@H](CO)NC(=O)[C@@H](NC(=O)[C@H](CC(=O)O)NC(=O)[C@H](CO)NC(=O)[C@@H](NC(=O)[C@H](Cc1ccccc1)NC(=O)[C@@H](NC(=O)CNC(=O)[C@H](CCC(N)=O)NC(=O)C(C)(C)NC(=O)[C@@H](N)Cc1c[nH]cn1)[C@@H](C)O)[C@@H](C)O)C(C)C)[C@@H](C)O)C(C)C)C(=O)N[C@@H](CC(C)C)C(=O)N[C@@H](CCC(=O)O)C(=O)NC(C)(C)C(=O)NCC(N)=O) [Peptide 514]	76.7	1370
H[Aib]QGTFTSDVSK[αMeF]LDSK([AEEA-AEEA-γGlu-C18 diacid])RAQDFVAWLLE[Aib]G-OH (N-terminus assumed; SMILES CC(C)C[C@H](NC(=O)[C@H](Cc1c[nH]c2ccccc12)NC(=O)[C@H](C)NC(=O)[C@@H](NC(=O)[C@H](Cc1ccccc1)NC(=O)[C@H](CC(=O)O)NC(=O)[C@H](CCC(N)=O)NC(=O)[C@H](C)NC(=O)[C@H](CCCNC(=N)N)NC(=O)[C@H](CCCCNC(=O)COCCOCCNC(=O)COCCOCCNC(=O)CC[C@H](NC(=O)CCCCCCCCCCCCCCCCC(=O)O)C(=O)O)NC(=O)[C@H](CO)NC(=O)[C@H](CC(=O)O)NC(=O)[C@H](CC(C)C)NC(=O)[C@](C)(Cc1ccccc1)NC(=O)[C@H](CCCCN)NC(=O)[C@H](CO)NC(=O)[C@@H](NC(=O)[C@H](CC(=O)O)NC(=O)[C@H](CO)NC(=O)[C@@H](NC(=O)[C@H](Cc1ccccc1)NC(=O)[C@@H](NC(=O)CNC(=O)[C@H](CCC(N)=O)NC(=O)C(C)(C)NC(=O)[C@@H](N)Cc1c[nH]cn1)[C@@H](C)O)[C@@H](C)O)C(C)C)C(C)C)C(=O)N[C@@H](CC(C)C)C(=O)N[C@@H](CCC(=O)O)C(=O)NC(C)(C)C(=O)NCC(=O)O) [Peptide 141]	264	392
H[Aib]QGTFTSDVSK[αMeF]LDSK([γGlu-γGlu-AEEA-AEEA-γGlu-γGlu-C18 diacid])RAQDFVRWLLEG[Aib]-OH (N-terminus assumed; SMILES CC(C)C[C@H](NC(=O)[C@H](CC(C)C)NC(=O)[C@H](Cc1c[nH]c2ccccc12)NC(=O)[C@H](CCCNC(=N)N)NC(=O)[C@@H](NC(=O)[C@H](Cc1ccccc1)NC(=O)[C@H](CC(=O)O)NC(=O)[C@H](CCC(N)=O)NC(=O)[C@H](C)NC(=O)[C@H](CCCNC(=N)N)NC(=O)[C@H](CCCCNC(=O)CC[C@H](NC(=O)CC[C@H](NC(=O)COCCOCCNC(=O)COCCOCCNC(=O)CC[C@H](NC(=O)CC[C@H](NC(=O)CCCCCCCCCCCCCCCCC(=O)O)C(=O)O)C(=O)O)C(=O)O)C(=O)O)NC(=O)[C@H](CO)NC(=O)[C@H](CC(=O)O)NC(=O)[C@H](CC(C)C)NC(=O)[C@](C)(Cc1ccccc1)NC(=O)[C@H](CCCCN)NC(=O)[C@H](CO)NC(=O)[C@@H](NC(=O)[C@H](CC(=O)O)NC(=O)[C@H](CO)NC(=O)[C@@H](NC(=O)[C@H](Cc1ccccc1)NC(=O)[C@@H](NC(=O)CNC(=O)[C@H](CCC(N)=O)NC(=O)C(C)(C)NC(=O)[C@@H](N)Cc1c[nH]cn1)[C@@H](C)O)[C@@H](C)O)C(C)C)C(C)C)C(=O)N[C@@H](CCC(=O)O)C(=O)NCC(=O)NC(C)(C)C(=O)O) [Peptide 137]	143	268
H[Aib]QGTFTSDVSK[αMeF]LEAK([AEEA-AEEA-γGlu-γGlu-C18 diacid])AAREFIAWLLET-NH2 (N-terminus assumed; SMILES CC[C@H](C)[C@H](NC(=O)[C@H](Cc1ccccc1)NC(=O)[C@H](CCC(=O)O)NC(=O)[C@H](CCCNC(=N)N)NC(=O)[C@H](C)NC(=O)[C@H](C)NC(=O)[C@H](CCCCNC(=O)COCCOCCNC(=O)COCCOCCNC(=O)CC[C@H](NC(=O)CC[C@H](NC(=O)CCCCCCCCCCCCCCCCC(=O)O)C(=O)O)C(=O)O)NC(=O)[C@H](C)NC(=O)[C@H](CCC(=O)O)NC(=O)[C@H](CC(C)C)NC(=O)[C@](C)(Cc1ccccc1)NC(=O)[C@H](CCCCN)NC(=O)[C@H](CO)NC(=O)[C@@H](NC(=O)[C@H](CC(=O)O)NC(=O)[C@H](CO)NC(=O)[C@@H](NC(=O)[C@H](Cc1ccccc1)NC(=O)[C@@H](NC(=O)CNC(=O)[C@H](CCC(N)=O)NC(=O)C(C)(C)NC(=O)[C@@H](N)Cc1c[nH]cn1)[C@@H](C)O)[C@@H](C)O)C(C)C)C(=O)N[C@@H](C)C(=O)N[C@@H](Cc1c[nH]c2ccccc12)C(=O)N[C@@H](CC(C)C)C(=O)N[C@@H](CC(C)C)C(=O)N[C@@H](CCC(=O)O)C(=O)N[C@H](C(N)=O)[C@@H](C)O) [Peptide 517]	146	738
H[Aib]QGTFTSDVSK[αMeF]LDTK([AEEA-AEEA-γGlu-C20 diacid])AARDFVQWLLE[Aib]G-NH2 (N-terminus assumed; SMILES CC(C)C[C@H](NC(=O)[C@H](Cc1c[nH]c2ccccc12)NC(=O)[C@H](CCC(N)=O)NC(=O)[C@@H](NC(=O)[C@H](Cc1ccccc1)NC(=O)[C@H](CC(=O)O)NC(=O)[C@H](CCCNC(=N)N)NC(=O)[C@H](C)NC(=O)[C@H](C)NC(=O)[C@H](CCCCNC(=O)COCCOCCNC(=O)COCCOCCNC(=O)CC[C@H](NC(=O)CCCCCCCCCCCCCCCCCCC(=O)O)C(=O)O)NC(=O)[C@@H](NC(=O)[C@H](CC(=O)O)NC(=O)[C@H](CC(C)C)NC(=O)[C@](C)(Cc1ccccc1)NC(=O)[C@H](CCCCN)NC(=O)[C@H](CO)NC(=O)[C@@H](NC(=O)[C@H](CC(=O)O)NC(=O)[C@H](CO)NC(=O)[C@@H](NC(=O)[C@H](Cc1ccccc1)NC(=O)[C@@H](NC(=O)CNC(=O)[C@H](CCC(N)=O)NC(=O)C(C)(C)NC(=O)[C@@H](N)Cc1c[nH]cn1)[C@@H](C)O)[C@@H](C)O)C(C)C)[C@@H](C)O)C(C)C)C(=O)N[C@@H](CC(C)C)C(=O)N[C@@H](CCC(=O)O)C(=O)NC(C)(C)C(=O)NCC(N)=O) [Peptide 515]	297	2660
H[Aib]QGTFTSDVSK[αMeF]LDSK([γGlu-γGlu-AEEA-AEEA-γGlu-γGlu-C20 diacid])RAQDFVRWLLE[Aib]G-OH [Peptide 139]	630	984
H[Aib]QGTFTSDVSK[αMeF]LDSK([γGlu-γGlu-AEEA-AEEA-γGlu-γGlu-C18 diacid])RARDFVRWLLE[Aib]G-OH (N-terminus assumed; SMILES CC(C)C[C@H](NC(=O)[C@H](Cc1c[nH]c2ccccc12)NC(=O)[C@H](CCCNC(=N)N)NC(=O)[C@@H](NC(=O)[C@H](Cc1ccccc1)NC(=O)[C@H](CC(=O)O)NC(=O)[C@H](CCCNC(=N)N)NC(=O)[C@H](C)NC(=O)[C@H](CCCNC(=N)N)NC(=O)[C@H](CCCCNC(=O)CC[C@H](NC(=O)CC[C@H](NC(=O)COCCOCCNC(=O)COCCOCCNC(=O)CC[C@H](NC(=O)CC[C@H](NC(=O)CCCCCCCCCCCCCCCCC(=O)O)C(=O)O)C(=O)O)C(=O)O)C(=O)O)NC(=O)[C@H](CO)NC(=O)[C@H](CC(=O)O)NC(=O)[C@H](CC(C)C)NC(=O)[C@](C)(Cc1ccccc1)NC(=O)[C@H](CCCCN)NC(=O)[C@H](CO)NC(=O)[C@@H](NC(=O)[C@H](CC(=O)O)NC(=O)[C@H](CO)NC(=O)[C@@H](NC(=O)[C@H](Cc1ccccc1)NC(=O)[C@@H](NC(=O)CNC(=O)[C@H](CCC(N)=O)NC(=O)C(C)(C)NC(=O)[C@@H](N)Cc1c[nH]cn1)[C@@H](C)O)[C@@H](C)O)C(C)C)C(C)C)C(=O)N[C@@H](CC(C)C)C(=O)N[C@@H](CCC(=O)O)C(=O)NC(C)(C)C(=O)NCC(=O)O) [Peptide 136]	45.2	509
H[Aib]QGTFTSDVSK[αMeF]LDSK([γGlu-γGlu-AEEA-AEEA-γGlu-γGlu-C18 diacid])RAQDFVRWLLE[Aib]G-OH (N-terminus assumed; SMILES CC(C)C[C@H](NC(=O)[C@H](Cc1c[nH]c2ccccc12)NC(=O)[C@H](CCCNC(=N)N)NC(=O)[C@@H](NC(=O)[C@H](Cc1ccccc1)NC(=O)[C@H](CC(=O)O)NC(=O)[C@H](CCC(N)=O)NC(=O)[C@H](C)NC(=O)[C@H](CCCNC(=N)N)NC(=O)[C@H](CCCCNC(=O)CC[C@H](NC(=O)CC[C@H](NC(=O)COCCOCCNC(=O)COCCOCCNC(=O)CC[C@H](NC(=O)CC[C@H](NC(=O)CCCCCCCCCCCCCCCCC(=O)O)C(=O)O)C(=O)O)C(=O)O)C(=O)O)NC(=O)[C@H](CO)NC(=O)[C@H](CC(=O)O)NC(=O)[C@H](CC(C)C)NC(=O)[C@](C)(Cc1ccccc1)NC(=O)[C@H](CCCCN)NC(=O)[C@H](CO)NC(=O)[C@@H](NC(=O)[C@H](CC(=O)O)NC(=O)[C@H](CO)NC(=O)[C@@H](NC(=O)[C@H](Cc1ccccc1)NC(=O)[C@@H](NC(=O)CNC(=O)[C@H](CCC(N)=O)NC(=O)C(C)(C)NC(=O)[C@@H](N)Cc1c[nH]cn1)[C@@H](C)O)[C@@H](C)O)C(C)C)C(C)C)C(=O)N[C@@H](CC(C)C)C(=O)N[C@@H](CCC(=O)O)C(=O)NC(C)(C)C(=O)NCC(=O)O) [Peptide 138]	104	184
